From patent US20050136061A1 (published 2005)
No end group written: not given here.

Biological target: HIV-1 IIIB transmembrane glycoprotein gp41 (HIV-1 IIIB)
Experiment: cell-based or functional assay

Binder: WQEWEQKITALLEQAQIQQEKNEYELQKLDKWASLWEWF (not fully specified) [T-1249 peptide]
- IC50, inhibition of HIV-1 IIIB infection of MT4-Luc cells (HIV LTR-luciferase reporter assay): ~3.3 nM
